In patent publication US8367390B2, “Galactanase variants” (Novozymes A/S, priority 2002, dated 2013):
Read-outs that look alike come from different tables or passages of the source.

What was measured:
[1] = Degradation of MeGal4, products by HPAE-PAD; type: biochemical; details: for Gal2 in reaction products / Gal3 in reaction products / Gal4 in reaction products / Gal in reaction products / MeGal2 in reaction products / MeGal3 in reaction products / MeGal4 in reaction products / MeGal in reaction products: MeGal4 0.25 mg/ml, pH 6.5, 37° C.
Procedure: (§1) The activity on the galacto-oligosaccharide substrates prepared as described above and on the commercially available galactobiose (Gal2, Megazyme) was studied for the four purified galactanases HIGAL, MTGAL, AAGAL and BLGAL. The buffers and temperatures used were: 25 mM sodium acetate, 0.5 mM CaCl2, 0.005% Triton X-100, pH 6.5 at 37° C. for HIGAL and MTGAL, 50 mM sodium acetate, 1 mM CaCl2, pH 4 at 30° C. for AAGAL and 50 mM Mes, 1 mM CaCl2, pH 6.5 at 30° C. for BLGAL. Enzyme concentrations used were 0.8 μg/ml for HIGAL, 0.2 microgram/ml for MTGAL, and 10 micrograms/ml for AAGAL and BLGAL. With HIGAL and MTGAL substrate concentrations were all 0.25 mg/ml, whereas 0.34 mg/ml Gal2, 0.050 mg/ml Gal3 and 0.067 mg/ml Gal4 were used for AAGAL and BLGAL. Enzyme activity in samples withdrawn after various incubation times was inactivated by heating to 95° C. for 10 min. Compositions of reaction products were analysed using HPAE-PAD (Dionex) applying a PA-100 column and a linear gradient of sodium acetate (0-0.18 M) in 0.15 M NaOH. Response factors of the individual carbohydrates were estimated from reference runs with MeGal3, MeGal4, Gal, Gal2, Gal3 and Gal4. Selected results are shown in Tables 2-8 below (the figures indicating weight percentage of glactooligosaccharides).

[2] = Activity on galactobiose (Gal2); type: biochemical; details: in 24 hours; buffer, pH and temperature per enzyme
Procedure: as §1

[3] = type: biochemical; details: for Gal2 in reaction products / Gal3 in reaction products / Gal4 in reaction products / Gal in reaction products: Gal4 0.25 mg/ml, pH 6.5, 37° C.
Procedure: as §1

[4] = Degradation of MeGal3, products by HPAE-PAD; type: biochemical; details: for Gal2 in reaction products / Gal3 in reaction products / Gal in reaction products / MeGal2 in reaction products / MeGal3 in reaction products / MeGal in reaction products: MeGal3 0.25 mg/ml, pH 6.5, 37° C.
Procedure: as §1

[5] = Activity on lactose, products by HPAE-PAD; type: biochemical; details: lactose 100 mg/ml, 50° C.
[6] = Activity on galactotriose (Gal3); type: biochemical; details: up to 24 hours; buffer, pH and temperature per enzyme
Procedure: as §1

[7] = pH 4.5, incubation time 2 hours
[8] = pH 4.5, incubation time 23 hours
[9] = pH 4.5, incubation time 120 hours
[10] = pH 6.45, incubation time 120 hours

B1: MTGAL: GH Family 53 galactanase from Myceliophthora thermophila, SEQ ID NO: 1 (wild type parent) (protein, listed as Myceliophthora thermophila)
chain: ALTYRGVDWSSVVVEERAGVSYKNTNGNAQPLENILAANGVNTVRQRVWVNPADGNYNLDYNIAIAKRAKAAGLGVYIDFHYSDTWADPAHQTMPAGWPSDIDNLSWKLYNYTLDAANKLQNAGIQPTIVSIGNEIRAGLLWPTGRTENWANIARLLHSAAWGIKDSSLSPKPKIMIHLDNGWDWGTQNWWYTNVLKQGTLELSDFDMMGVSFYPFYSSSATLSALKSSLDNMAKTWNKEIAVVETNWPISCPNPRYSFPSDVKNIPFSPEGQTTFITNVANIVSSVSRGVGLFYWEPAWIHNANLGSSCADNTMFSQSGQALSSLSVFQRI
modifications: mat_peptide (1)..()
[1]; incubation time 0.0 hours
  Gal2 in reaction products: 0.0 weight percentage
  Gal3 in reaction products: 0.0 weight percentage
  Gal4 in reaction products: 0.0 weight percentage
  Gal in reaction products: 0.0 weight percentage
  MeGal2 in reaction products: 4.7 weight percentage
  MeGal3 in reaction products: 14.8 weight percentage
  MeGal4 in reaction products: 79.0 weight percentage
  MeGal in reaction products: 1.6 weight percentage
[1]; incubation time 0.5 hours
  Gal2 in reaction products: 3.3 weight percentage
  Gal3 in reaction products: 13.7 weight percentage
  Gal4 in reaction products: 2.5 weight percentage
  Gal in reaction products: 0.9 weight percentage
  MeGal2 in reaction products: 9.6 weight percentage
  MeGal3 in reaction products: 17.1 weight percentage
  MeGal4 in reaction products: 43.9 weight percentage
  MeGal in reaction products: 8.9 weight percentage
[1]; incubation time 2.0 hours
  Gal2 in reaction products: 10.9 weight percentage
  Gal3 in reaction products: 23.9 weight percentage
  Gal4 in reaction products: 3.7 weight percentage
  Gal in reaction products: 4.8 weight percentage
  MeGal2 in reaction products: 13.6 weight percentage
  MeGal3 in reaction products: 16.0 weight percentage
  MeGal4 in reaction products: 10.9 weight percentage
  MeGal in reaction products: 16.2 weight percentage
[1]; incubation time 5.0 hours
  Gal2 in reaction products: 20.1 weight percentage
  Gal3 in reaction products: 17.9 weight percentage
  Gal4 in reaction products: 2.9 weight percentage
  Gal in reaction products: 12.4 weight percentage
  MeGal2 in reaction products: 13.9 weight percentage
  MeGal3 in reaction products: 9.9 weight percentage
  MeGal4 in reaction products: 3.5 weight percentage
  MeGal in reaction products: 19.3 weight percentage
[1]; incubation time 24.0 hours
  Gal2 in reaction products: 32.7 weight percentage
  Gal3 in reaction products: 3.4 weight percentage
  Gal4 in reaction products: 1.1 weight percentage
  Gal in reaction products: 24.2 weight percentage
  MeGal2 in reaction products: 13.3 weight percentage
  MeGal3 in reaction products: 2.3 weight percentage
  MeGal4 in reaction products: 2.9 weight percentage
  MeGal in reaction products: 20.1 weight percentage
[1]; in words, buffer, pH and temperature per enzyme
  Products from MeGal4: initial release mainly of MeGal, MeGal2 and Gal3 and some Gal2 but little Gal
[2]
  Activity on Gal2: Neither of the enzymes HIGAL, MTGAL, AAGAL or BLGAL had any detectable activity
[3]
  Products of Gal4 (galactotetraose) degradation: mainly to Gal and Gal2, whereas Gal3 did not accumulate
[3]; incubation time 0.0 hours
  Gal2 in reaction products: 0.0 weight percentage
  Gal3 in reaction products: 42.0 weight percentage
  Gal4 in reaction products: 58.0 weight percentage
  Gal in reaction products: 0.0 weight percentage
[3]; incubation time 0.5 hours
  Gal2 in reaction products: 9.9 weight percentage
  Gal3 in reaction products: 27.7 weight percentage
  Gal4 in reaction products: 50.8 weight percentage
  Gal in reaction products: 11.6 weight percentage
[3]; incubation time 2.2 hours
  Gal2 in reaction products: 17.4 weight percentage
  Gal3 in reaction products: 45.5 weight percentage
  Gal4 in reaction products: 22.3 weight percentage
  Gal in reaction products: 14.9 weight percentage
[3]; incubation time 5.0 hours
  Gal2 in reaction products: 29.1 weight percentage
  Gal3 in reaction products: 29.5 weight percentage
  Gal4 in reaction products: 12.1 weight percentage
  Gal in reaction products: 29.2 weight percentage
[3]; incubation time 72.0 hours
  Gal2 in reaction products: 43.5 weight percentage
  Gal3 in reaction products: 1.5 weight percentage
  Gal4 in reaction products: 0.0 weight percentage
  Gal in reaction products: 54.9 weight percentage
[4]; incubation time 0.0 hours
  Gal2 in reaction products: 0.0 weight percentage
  Gal3 in reaction products: 0.0 weight percentage
  Gal in reaction products: 0.0 weight percentage
  MeGal2 in reaction products: 0.0 weight percentage
  MeGal3 in reaction products: 100.0 weight percentage
  MeGal in reaction products: 0.0 weight percentage
[4]; incubation time 0.5 hours
  Gal2 in reaction products: 0.0 weight percentage
  Gal3 in reaction products: 0.0 weight percentage
  Gal in reaction products: 0.0 weight percentage
  MeGal2 in reaction products: 2.7 weight percentage
  MeGal3 in reaction products: 87.2 weight percentage
  MeGal in reaction products: 10.1 weight percentage
[4]; incubation time 2.2 hours
  Gal2 in reaction products: 8.5 weight percentage
  Gal3 in reaction products: 0.4 weight percentage
  Gal in reaction products: 14.1 weight percentage
  MeGal2 in reaction products: 1.9 weight percentage
  MeGal3 in reaction products: 47.5 weight percentage
  MeGal in reaction products: 27.6 weight percentage
[4]; incubation time 5.0 hours
  Gal2 in reaction products: 10.9 weight percentage
  Gal3 in reaction products: 15.7 weight percentage
  Gal in reaction products: 2.2 weight percentage
  MeGal2 in reaction products: 3.2 weight percentage
  MeGal3 in reaction products: 50.6 weight percentage
  MeGal in reaction products: 17.4 weight percentage
[4]; incubation time 72.0 hours
  Gal2 in reaction products: 37.2 weight percentage
  Gal3 in reaction products: 23.2 weight percentage
  Gal in reaction products: 6.5 weight percentage
  MeGal2 in reaction products: 3.5 weight percentage
  MeGal3 in reaction products: 1.3 weight percentage
  MeGal in reaction products: 28.3 weight percentage
[4]; in words
  Release of MeGal versus MeGal2 from MeGal3: much higher release of MeGal than MeGal2
[5]; [7]
  DP3 in products: 2.0 weight %
  DP4+ in products: 0.5 weight %
  Glu/Gal in products: 1.4 weight %
  Lac/Gal2 in products: 96.0 weight %
[5]; [8]
  DP3 in products: 7.0 weight %
  DP4+ in products: 1.8 weight %
  Glu/Gal in products: 12.5 weight %
  Lac/Gal2 in products: 78.7 weight %
[5]; [9]
  DP3 in products: 8.9 weight %
  DP4+ in products: 1.1 weight %
  Glu/Gal in products: 38.8 weight %
  Lac/Gal2 in products: 51.2 weight %
[5]; pH 6.45, incubation time 2 hours
  DP4+ in products: 1.9 weight %
[5]; pH 6.45, incubation time 23 hours
  DP4+ in products: 1.9 weight %
[5]; [10]
  DP3 in products: 11.7 weight %
  DP4+ in products: 4.7 weight %
  Lac/Gal2 in products: 62.6 weight %
[5]; pH 4.5 and 6.5
  Conversion of Lac: significant conversion of Lac
[6]
  Activity on Gal3, products: degraded Gal3 to Gal2 and Gal
